This is an account of results in PMC5122715, “A Novel, Molybdenum-Containing Methionine Sulfoxide Reductase Supports Survival of Haemophilus influenzae in an In vivo Model of Infection” (Frontiers in Microbiology, 2016).

Holding throughout (assay): purified protein
In data set [1] the test system is C[S+](C)[O-]. The note with it: 0.2 mM benzyl viologen, 0.3 mM dithionite, 20 mM sodium phosphate pH 6.8, 37°C.
The subject of data set [2] is C[N+](C)(C)[O-]. The following applies: 0.2 mM benzyl viologen, 0.3 mM dithionite, 20 mM sodium phosphate pH 6.8, 37°C.
Data set [3] deals with O=C(O)CCCC[C@H]1[C@H]2NC(=O)N[C@H]2C[S@+]1[O-]. The following applies: 0.2 mM benzyl viologen, 0.3 mM dithionite, 20 mM sodium phosphate pH 6.8, 37°C.
For data set [4], the system named is C[S+]([O-])CCC(N)C(=O)O. The note with it: 0.2 mM benzyl viologen, 0.3 mM dithionite, 20 mM sodium phosphate pH 6.8, 37°C, concentration of the whole racemic mixture.

For “HI rTorZ (TorZ/MtsZ) (Haemophilus influenzae Rd KW20)”, the Km in data set [1] worked out at 140 ± 50 µM; in data set [2], 6700 ± 2000 µM; in data set [3], 1520 ± 280 µM; in data set [4], 410 ± 80 µM. Further, the kcat in data set [1] was 85.4 ± 9.1 s⁻¹; in data set [2] it was 435 ± 52.1 s⁻¹; in data set [3], 183 ± 10.9 s⁻¹; in data set [4], 91.7 ± 4.4 s⁻¹. Besides, the specificity constant (kcat/Km) in data set [1] turned out to be 650000 M⁻¹ s⁻¹; in data set [2] it was 64900 M⁻¹ s⁻¹; in data set [3], 120000 M⁻¹ s⁻¹; in data set [4], 224000 M⁻¹ s⁻¹.
